# Laboratory results published in paper PMC9482650, “Quantitative fragmentomics allow affinity mapping of interactomes” (Nature Communications, 2022).
# What was measured:
# Experiment in all cases: holdup assay
# Design in all cases: key: below the threshold = too weak to quantify, mostly under pKd 3.1 to 4
# Settings in all cases: plain residues with an end cap or a label only (N-terminal biotin on a linker: ado-ado)
# PTPN3, P26045 = target: PTPN3, P26045
# GRID2IP_1, A4D2P6 = target: GRID2IP_1, A4D2P6
# Inadl_10, Q8NI35 = target: Inadl_10, Q8NI35
# SHANK1, Q9Y566 = target: T1, SHANK1, Q9Y566
# T1 sequence (Q9Y566 658-767, limits assumed, looked up): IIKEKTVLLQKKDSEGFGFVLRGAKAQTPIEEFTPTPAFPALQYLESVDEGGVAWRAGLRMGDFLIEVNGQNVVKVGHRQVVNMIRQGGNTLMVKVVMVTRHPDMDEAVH
# NHERF4_4, Q86UT5 = target: NHERF4_4, Q86UT5
# LIN7A, O14910 = target: T2, LIN7A, O14910
# T2 sequence (O14910 103-200, limits assumed, looked up): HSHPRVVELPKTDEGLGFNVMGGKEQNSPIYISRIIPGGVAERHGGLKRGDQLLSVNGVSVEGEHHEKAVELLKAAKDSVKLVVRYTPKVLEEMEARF
# DLG2_3, Q15700 = target: DLG2_3, Q15700
# DLG3_2, Q92796 = target: T3, DLG3_2, Q92796
# T3 sequence (Q92796 221-321, limits assumed, looked up): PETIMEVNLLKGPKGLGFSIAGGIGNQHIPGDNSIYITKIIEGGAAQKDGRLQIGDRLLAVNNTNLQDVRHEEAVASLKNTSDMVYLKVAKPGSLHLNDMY
# MAGI2_6, Q86UL8 = target: MAGI2_6, Q86UL8
# MAGI2_2, Q86UL8 = target: MAGI2_2, Q86UL8
# NHERF2_2, Q15599 = target: NHERF2_2, Q15599
# DLG5_1, Q8TDM6 = target: DLG5_1, Q8TDM6
# ARHGEF11, O15085 = target: T4, ARHGEF11, O15085
# T4 sequence (O15085 42-136, limits assumed, looked up): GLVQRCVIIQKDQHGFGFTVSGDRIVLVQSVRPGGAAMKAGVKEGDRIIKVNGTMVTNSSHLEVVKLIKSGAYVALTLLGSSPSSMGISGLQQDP
# LNX1_1, Q8TBB1 = target: LNX1_1, Q8TBB1
# GIPC2, Q8TF65 = target: GIPC2, Q8TF65
# Inadl_5, Q8NI35 = target: Inadl_5, Q8NI35
# Inadl_1, Q8NI35 = target: Inadl_1, Q8NI35
# FRMPD1, Q5SYB0 = target: T5, FRMPD1, Q5SYB0
# T5 sequence (Q5SYB0 52-145, limits assumed, looked up): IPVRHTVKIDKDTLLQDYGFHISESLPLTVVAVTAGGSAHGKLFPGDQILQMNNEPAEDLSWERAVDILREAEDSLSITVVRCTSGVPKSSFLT
# PTPN13_1, Q12923 = target: T6, PTPN13_1, Q12923
# T6 sequence (Q12923 1088-1188, limits assumed, looked up): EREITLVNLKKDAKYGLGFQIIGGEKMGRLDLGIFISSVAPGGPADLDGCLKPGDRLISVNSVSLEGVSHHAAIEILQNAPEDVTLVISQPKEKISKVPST
# TX1BP3, O14907 = target: T7, TX1BP3, O14907
# T7 sequence (O14907 10-122, limits assumed, looked up): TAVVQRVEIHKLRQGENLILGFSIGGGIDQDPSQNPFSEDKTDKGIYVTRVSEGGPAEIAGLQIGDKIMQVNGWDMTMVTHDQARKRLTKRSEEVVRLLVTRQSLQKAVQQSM
# GRASP, Q7Z6J2 = target: GRASP, Q7Z6J2
# MPDZ_12, O75970 = target: T8, MPDZ_12, O75970
# T8 sequence (O75970 1857-1958, limits assumed, looked up): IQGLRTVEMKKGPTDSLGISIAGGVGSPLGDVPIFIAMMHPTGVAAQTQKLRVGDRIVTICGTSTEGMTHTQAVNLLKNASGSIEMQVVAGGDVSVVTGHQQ
# DLG1_1, Q12959 = target: DLG1_1, Q12959
# MAGI2_3, Q86UL8 = target: MAGI2_3, Q86UL8
# Inadl_9, Q8NI35 = target: Inadl_9, Q8NI35
# GORASP2, Q9H8Y8 = target: GORASP2, Q9H8Y8
# MAST2, Q6P0Q8 = target: MAST2, Q6P0Q8
# PCLO, Q9Y6V0 = target: T9, PCLO, Q9Y6V0
# T9 sequence (Q9Y6V0 4491-4600, limits assumed, looked up): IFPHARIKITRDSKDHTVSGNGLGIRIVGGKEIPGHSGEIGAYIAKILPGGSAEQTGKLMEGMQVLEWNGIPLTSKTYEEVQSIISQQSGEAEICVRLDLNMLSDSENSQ
# PDZRN4_1, Q6ZMN7 = target: PDZRN4_1, Q6ZMN7
# PDZRN4_1, Q6ZMN7, sequence (Q6ZMN7 213-318): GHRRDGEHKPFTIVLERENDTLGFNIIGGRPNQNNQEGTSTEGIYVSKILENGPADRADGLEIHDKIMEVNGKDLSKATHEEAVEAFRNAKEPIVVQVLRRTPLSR
# DLG5_1, Q8TDM6, sequence (Q8TDM6 617-713): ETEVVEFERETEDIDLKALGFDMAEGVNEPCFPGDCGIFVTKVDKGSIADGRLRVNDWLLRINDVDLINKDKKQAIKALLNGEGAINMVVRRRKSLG
# MAGI2_2, Q86UL8, sequence (Q86UL8 410-522): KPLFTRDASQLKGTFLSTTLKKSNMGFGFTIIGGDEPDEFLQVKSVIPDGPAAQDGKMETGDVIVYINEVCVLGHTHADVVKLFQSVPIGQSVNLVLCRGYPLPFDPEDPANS
# Inadl_10, Q8NI35, sequence (Q8NI35 1673-1763): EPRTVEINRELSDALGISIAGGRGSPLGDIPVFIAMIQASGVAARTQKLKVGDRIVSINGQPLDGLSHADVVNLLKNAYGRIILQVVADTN
# GRASP, Q7Z6J2, sequence (Q7Z6J2 96-193): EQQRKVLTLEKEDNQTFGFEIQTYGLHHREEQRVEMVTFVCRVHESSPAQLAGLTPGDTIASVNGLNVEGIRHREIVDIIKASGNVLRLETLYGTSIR
# MAGI2_3, Q86UL8, sequence (Q86UL8 600-682): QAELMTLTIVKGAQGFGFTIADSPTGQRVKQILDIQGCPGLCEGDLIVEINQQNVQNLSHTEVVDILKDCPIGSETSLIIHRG
# Inadl_9, Q8NI35, sequence (Q8NI35 1530-1615): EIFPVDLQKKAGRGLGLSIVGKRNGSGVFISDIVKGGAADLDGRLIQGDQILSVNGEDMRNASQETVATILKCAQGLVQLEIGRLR
# GIPC2, Q8TF65, sequence (Q8TF65 112-203): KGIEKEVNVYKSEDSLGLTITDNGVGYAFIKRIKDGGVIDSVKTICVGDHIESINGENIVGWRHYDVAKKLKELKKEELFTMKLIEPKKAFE
# NHERF2_2, Q15599, sequence (Q15599 142-238): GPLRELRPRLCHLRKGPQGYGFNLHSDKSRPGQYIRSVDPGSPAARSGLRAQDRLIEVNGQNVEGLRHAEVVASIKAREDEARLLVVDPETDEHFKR
# PTPN3, P26045, sequence (P26045 505-587): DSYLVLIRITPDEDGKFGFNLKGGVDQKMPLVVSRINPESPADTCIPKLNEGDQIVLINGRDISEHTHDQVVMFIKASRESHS
# LNX1_1, Q8TBB1, sequence (Q8TBB1 261-371): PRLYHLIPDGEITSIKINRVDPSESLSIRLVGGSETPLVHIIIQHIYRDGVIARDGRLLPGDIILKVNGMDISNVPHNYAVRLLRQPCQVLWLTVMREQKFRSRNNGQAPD
# Inadl_1, Q8NI35, sequence (Q8NI35 113-229): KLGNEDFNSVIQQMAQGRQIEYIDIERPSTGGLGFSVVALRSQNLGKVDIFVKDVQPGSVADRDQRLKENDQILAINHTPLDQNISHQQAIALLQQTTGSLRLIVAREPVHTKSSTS
# Inadl_5, Q8NI35, sequence (Q8NI35 673-780): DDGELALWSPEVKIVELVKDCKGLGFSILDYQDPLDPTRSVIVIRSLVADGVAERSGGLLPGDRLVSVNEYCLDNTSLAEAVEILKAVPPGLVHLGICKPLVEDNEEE
# MAGI2_6, Q86UL8, sequence (Q86UL8 1141-1229): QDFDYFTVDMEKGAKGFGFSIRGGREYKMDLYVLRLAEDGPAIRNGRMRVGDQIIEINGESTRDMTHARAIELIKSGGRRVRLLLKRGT
# NHERF4_4, Q86UT5, sequence (Q86UT5 464-550): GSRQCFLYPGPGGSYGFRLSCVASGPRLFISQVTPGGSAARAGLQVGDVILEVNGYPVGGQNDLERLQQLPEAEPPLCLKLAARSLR
# MAST2, Q6P0Q8, sequence (Q6P0Q8 1099-1202): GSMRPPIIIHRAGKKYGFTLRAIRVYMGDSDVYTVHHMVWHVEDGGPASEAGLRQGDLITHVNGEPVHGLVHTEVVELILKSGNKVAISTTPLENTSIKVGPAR
# GRID2IP_1, A4D2P6, sequence (A4D2P6 1-87): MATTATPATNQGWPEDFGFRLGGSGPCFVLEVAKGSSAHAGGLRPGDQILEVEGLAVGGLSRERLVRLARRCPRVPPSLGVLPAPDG
Binder,"pKd (PTPN3, P26045)","pKd (GRID2IP_1, A4D2P6)","pKd (Inadl_10, Q8NI35)","pKd (SHANK1, Q9Y566)","pKd (NHERF4_4, Q86UT5)","pKd (LIN7A, O14910)","pKd (DLG2_3, Q15700)","pKd (DLG3_2, Q92796)","pKd (MAGI2_6, Q86UL8)","pKd (MAGI2_2, Q86UL8)","pKd (NHERF2_2, Q15599)","pKd (DLG5_1, Q8TDM6)","pKd (ARHGEF11, O15085)","pKd (LNX1_1, Q8TBB1)","pKd (GIPC2, Q8TF65)","pKd (Inadl_5, Q8NI35)","pKd (Inadl_1, Q8NI35)","pKd (FRMPD1, Q5SYB0)","pKd (PTPN13_1, Q12923)","pKd (TX1BP3, O14907)",further results
"KKAPTNEFYA [SDC4, P31431]",4.02,below the threshold,below the threshold,below the threshold,below the threshold,below the threshold,3.62,4.14,below the threshold,below the threshold,below the threshold,below the threshold,below the threshold,below the threshold,below the threshold,below the threshold,below the threshold,below the threshold,below the threshold,3.85,"pKd (GRASP, Q7Z6J2): below the threshold; pKd (MPDZ_12, O75970): below the threshold; pKd (DLG1_1, Q12959): below the threshold; pKd (MAGI2_3, Q86UL8): below the threshold; pKd (Inadl_9, Q8NI35): below the threshold; pKd (GORASP2, Q9H8Y8): below the threshold; pKd (MAST2, Q6P0Q8): below the threshold; pKd (PCLO, Q9Y6V0): below the threshold; pKd (PDZRN4_1, Q6ZMN7): below the threshold"
"TKGPRGPTRV [SAPCD1, Q5SSQ6]",below the threshold,below the threshold,below the threshold,4.26,below the threshold,below the threshold,4.55,4.13,below the threshold,5.42,below the threshold,below the threshold,4.03,below the threshold,below the threshold,3.61,below the threshold,below the threshold,below the threshold,below the threshold,"pKd (GRASP, Q7Z6J2): 4.59; pKd (MPDZ_12, O75970): below the threshold; pKd (DLG1_1, Q12959): 4.38; pKd (MAGI2_3, Q86UL8): 4.69; pKd (Inadl_9, Q8NI35): 4.11; pKd (GORASP2, Q9H8Y8): 3.96; pKd (MAST2, Q6P0Q8): 4.67; pKd (PCLO, Q9Y6V0): below the threshold; pKd (PDZRN4_1, Q6ZMN7): 3.67"

# More lines, main results first:
"pKd (PTPN3, P26045)","pKd (GRID2IP_1, A4D2P6)","pKd (Inadl_10, Q8NI35)","pKd (SHANK1, Q9Y566)","pKd (NHERF4_4, Q86UT5)","pKd (LIN7A, O14910)","pKd (DLG2_3, Q15700)","pKd (DLG3_2, Q92796)","pKd (MAGI2_6, Q86UL8)","pKd (MAGI2_2, Q86UL8)","pKd (NHERF2_2, Q15599)","pKd (DLG5_1, Q8TDM6)","pKd (ARHGEF11, O15085)","pKd (LNX1_1, Q8TBB1)","pKd (GIPC2, Q8TF65)","pKd (Inadl_5, Q8NI35)","pKd (Inadl_1, Q8NI35)","pKd (FRMPD1, Q5SYB0)","pKd (PTPN13_1, Q12923)","pKd (TX1BP3, O14907)",Binder,further results
3.87,below the threshold,below the threshold,below the threshold,below the threshold,below the threshold,3.6,4.25,below the threshold,3.56,below the threshold,below the threshold,below the threshold,below the threshold,below the threshold,below the threshold,below the threshold,below the threshold,below the threshold,below the threshold,"SNAGNTATKA [NOSTRIN, Q8IVI9]","pKd (GRASP, Q7Z6J2): below the threshold; pKd (MPDZ_12, O75970): below the threshold; pKd (DLG1_1, Q12959): below the threshold; pKd (MAGI2_3, Q86UL8): below the threshold; pKd (Inadl_9, Q8NI35): below the threshold; pKd (GORASP2, Q9H8Y8): below the threshold; pKd (MAST2, Q6P0Q8): 3.59; pKd (PCLO, Q9Y6V0): below the threshold; pKd (PDZRN4_1, Q6ZMN7): below the threshold"
4.66,below the threshold,below the threshold,below the threshold,below the threshold,below the threshold,below the threshold,4.47,3.55,3.78,3.63,below the threshold,3.99,3.95,4.37,3.54,below the threshold,below the threshold,below the threshold,3.81,"QGPVETESVV [SLC45A4, Q5BKX6]","pKd (GRASP, Q7Z6J2): 3.48; pKd (MPDZ_12, O75970): 3.5; pKd (DLG1_1, Q12959): 4.19; pKd (MAGI2_3, Q86UL8): 3.65; pKd (Inadl_9, Q8NI35): 3.75; pKd (GORASP2, Q9H8Y8): 3.53; pKd (MAST2, Q6P0Q8): 4.73; pKd (PCLO, Q9Y6V0): below the threshold; pKd (PDZRN4_1, Q6ZMN7): 3.64"
